{"source": "patent US10100120B2", "about": "“Antibody which specifically binds to human CRTH2” (KYOWA HAKKO KIRIN CO., LTD, priority 2015, dated 2018)", "molecules": {"B1": {"name": "chLym2: rat/human chimeric Lym2 antibody, Lym2 variable regions with human IgG1 and κ constant regions (antibody, V domains shown)", "VH": "EVQLVESGGGLVQPGRSMKLSCAASGFTFSNYYMAWVRQAPKKGLEWVATISYDGSSTYYRDSVKGRFTISRDNAKSTLYLQMDSLRSEDTATYYCARHRGYYYSGAGYFDYWGQGVMVTVSS", "VL": "DVVLTQTPVSLSVTLGDQASISCRSSQSLEYSDGYTYLEWYLQKPGQSPQVLIYGVSNRFSGVPDRFIGSGSGTDFTLKISRVEPEDLGVYYCFQATHDPLTFGSGTKLEIK"}}, "key": {"[1]": {"molecular_target": "T1, mutated human CRTH2 with amino acid substitution (Homo sapiens, UniProt Q9Y5Y4, D171A/I173A/T172A)", "T1 construct": "inserting genes encoding various mutants with amino acid substitution obtained by deleting termination codons; expressed in transfected cells; host or cells: CHO-S cells (Lifetechnologies), transient (phmAG1-MNLinker vector)", "T1 sequence (Q9Y5Y4 1-395 D171A/T172A/I173A)": "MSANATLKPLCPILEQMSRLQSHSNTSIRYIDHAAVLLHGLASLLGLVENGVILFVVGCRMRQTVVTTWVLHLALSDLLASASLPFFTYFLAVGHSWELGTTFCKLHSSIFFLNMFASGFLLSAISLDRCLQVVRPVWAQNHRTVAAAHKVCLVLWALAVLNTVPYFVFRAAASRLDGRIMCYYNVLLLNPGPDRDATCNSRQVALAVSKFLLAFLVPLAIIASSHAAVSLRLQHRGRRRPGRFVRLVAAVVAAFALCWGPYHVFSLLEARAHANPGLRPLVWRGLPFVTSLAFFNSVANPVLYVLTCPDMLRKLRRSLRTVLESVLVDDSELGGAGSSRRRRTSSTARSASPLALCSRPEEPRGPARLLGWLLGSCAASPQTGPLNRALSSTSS", "assay": "Epitope analysis using CHO-S cells which express mutated human CRTH2 with amino acid substitution", "format": "binding", "conditions": "mutant D171A, T172A, and I173A; antibody 10 μg/mL; relative to wild-type = 100%", "protocol": "A mutant with amino acid substitution expression vector obtained by partially substituting amino acid residues in an extracellular region with other amino acid residues among the amino acid sequences of human CRTH2 was prepared. Specifically, mutant with amino acid substitution expression vectors obtained by substitution of S2A; N4A; T6A and L7A; K8A, P9A, and L10A; P12A, L14A, and EISA; Q16E, R19H, and Q21R; H23A, S24A, and N25A; T26A, S27A, and I28A; D171A, T172A, and I173A; S174A, R175A, and L176A; D177A, G178A, and R179A; 1180A and M181A; Y183A, Y184A, and N185A; L187A, L188A, and L189A; N190A; P191A; G192A; P193A; D194A; R195A; D196A, and T198A; N275A, G277A, and L278A; P276A; P279A and L281A; P280A; or V282A, R283A, and R284A in the amino acid sequences represented by SEQ ID NO: 2 were respectively prepared. It should be noted that the above symbols in the amino acid substitution indicate [single letter code of an amino acid residue before substitution] [substitution position counting from the N terminal] [single letter code of the amino acid reside after substitution].\nAzami-Green tag was added to the intercellular C terminal region by inserting genes encoding various mutants with amino acid substitution obtained by deleting termination codons to the restriction enzyme sites of BamHI and HindIII using phmAG1-MNLinker (MBL) as expression vectors.\nThe above-described vectors expressing mutants with amino acid substitution were prepared using 1) a method of entirely synthesizing gene sequences encoding mutants with amino acid substitution and inserting the gene sequences into a vector or 2) a method of performing site-specific mutation from a vector into which DNA which encodes the amino acid sequences of wild-type human CRTH2 represented by SEQ ID NO: 1 was inserted.\nCHO-S cells (Lifetechnologies) were used for preparing mutated human CRTH2 with amino acid substitution expressing cell lines. Free style CHO expression medium (Invitrogen) containing 8 mM L-Glutamine (Invitrogen) was used for subculturing cells and the cells were cultured by shaking under the conditions of 37° C. in the presence of 5% CO2.\n25 μg of the mutated human CRTH2 with amino acid substitution expression vector prepared in (1) described above was dissolved in 400 μL of Opti-Pro SFM (Invitrogen) and 25 μL of a Freestyle MAX Reagent (Invitrogen) was dissolved in 400 μL of Opti-Pro SFM and each of them were allowed to stand at room temperature for 5 minutes. The two liquids were mixed with each other and allowed to stand at room temperature for 15 minutes. The mixed solution was added to the CHO-S culture solution and the cells were cultured for 24 hours, thereby obtaining cell lines which express mutated human CRTH2 with amino acid substitution.\nThe CHO-S cells which express mutated human CRTH2 with amino acid substitution established in (2) were washed with SM, seeded in a 96-well plate such that one well has 2×10^5 cells, and centrifuged at 1700 rpm for 2 minutes. After the supernatant was removed, chLym2, LV0HV1, the anti-human CRTH2 antibody hu19A2 v52, hu8B1 v1, ch3C12, or ch31A5 prepared in Example 9, or a commercially available anti-human CRTH2 antibody BM16 (Santa Cruz) prepared to have a concentration of 10 μg/mL using SM was added thereto to cause a reaction at 4° C. for 1 hour.\nAfter the cells were washed, goat anti-Human IgG Alexa 647 (Molecular Probes) diluted with SM was added to wells to which chLym2, LV0HV1, hu19A2 v52, hu8B1 v1, ch3C12, or ch31A5 was added and goat anti-Rat IgG Alexa 647 (Molecular Probes) diluted with SM was added to wells to which BM16 was added at a final concentration of 10 μg/mL to cause a reaction at 4° C. for 1 hour.\nAfter the reaction, the cells were washed and suspended with SM, and the fluorescent intensity was analyzed by flow cytometry (BD Biosciences, FACS CantoII). […]"}, "human basophils": {"test_system": "human basophils", "assay": "Reactivity against human basophils, flow cytometry", "format": "binding", "conditions": "10 μg/mL, 4° C., 1 hour; FIG. 9", "protocol": "To human peripheral blood collected by adding a heparin sodium injection liquid, the same amount of physiological saline for injection as the human peripheral blood was added and mixed with each other. 15 mL of Ficoll-Paque PREMIUM 1.084 (GE Healthcare) was added to a 50 mL centrifuge tube, 30 mL of the human peripheral blood diluted with physiological saline was overlaid thereon, and centrifugation was performed at room temperature and 1500 rpm for 30 minutes.\nAfter the centrifugation, the mononuclear cell layer was recovered using a pipette and washed twice with an MACS buffer. After the number of cells was counted, basophils were isolated by a negative selection method using Basophil Isolation Kit II, human (Miltenyi Biotec) according to the attached instructions.\nAfter the isolated cells were washed with SM, the isolated cells were seeded in a 96-well plate such that one well has 5×10^4 cells, and centrifuged at 2000 rpm for 2 minutes. […] After the cells were washed, the cells were suspended with SM, and the fluorescent intensity was analyzed by flow cytometry (BD Biosciences, FACS CantoII)."}, "Th2 cells": {"test_system": "Th2 cells", "assay": "Cytotoxic activity against Th2 cells: cytokine production of PBMC after antibody treatment", "format": "cell-based, human", "conditions": "antibody 10 μg/mL 20 hours, then anti-CD3/anti-CD28 stimulation 3 days", "protocol": "The mononuclear cell layer prepared in the same manner as in Example 13 was washed twice with RPMI-1640 (Wako Pure Chemical Industries) to which 1/10 volume FBS (GIBCO Inc.), 200 mM-L-Glutamine Stock Solution (NACALAI TESQUE, Inc.), 10 mM MEM Non-Essential Amino Acids Solution (GIBCO Inc.), 100 mM Sodium Pyruvate (GIBCO Inc.), 1 M HEPES Buffer Solution (GIBCO Inc.), and 1/100 volume Penicillin-Streptomycin, Liquid (GIBCO Inc.) were added [hereinafter, referred to as peripheral blood mononuclear cell (PBMC) culture medium], thereby preparing a 1×10^7 cells/mL cell suspension.\nThe prepared cell suspension was seeded in a 96-well plate at 100 μL/well, chLym2 antibody, the humanized anti-human CRTH2 antibody LV0HV1 or the isotype control antibody described in Example 8 was added thereto at a final concentration of 10 μg/mL to cause a reaction in a 5% CO2 incubator at 37° C. for 20 hours.\nThe cells after the reaction were washed 7 times with a PBMC culture medium to remove the test antibodies thoroughly. Thereafter, the cells were suspended with 100 μL of PBMC culture medium and seeded in a plate in which anti-CD3 antibody OKT3 (Abeam plc.) was immobilized at a concentration of 1 μg/mL. Next, an anti-CD28 antibody (BD Biosciences) prepared to have a concentration of 2 μg/mL was added thereto at 100 μL/well to cause a reaction in a 5% CO2 incubator at 37° C. for 3 days.\nThe supernatant after the reaction was recovered, and cytokine in the supernatant was quantified using Human IFN-γ Flex Set (BD Biosciences), Human IL-5 Flex Set (BD Biosciences), and Human IL-13 Flex Set (BD Biosciences) according to the attached instructions."}}}
{"molecule": "B1", "values": [{"measurement": "reactivity against cells expressing mutated human CRTH2", "setting": "[1]", "result": "additionally lost"}, {"measurement": "reactivity against human basophils", "setting": "human basophils", "result": "has reactivity"}, {"measurement": "production of IL-5 (Th2 cytokine)", "setting": "Th2 cells; FIG. 12(A)", "result": "reduced"}, {"measurement": "production of IL-13 (Th2 cytokine)", "setting": "Th2 cells; FIG. 12(A)", "result": "reduced"}, {"measurement": "production of IFN-γ (Th1 cytokine)", "setting": "Th2 cells; FIG. 12(B)", "result": "not changed"}]}
